# Measurements as given in the supplement of paper PMC10567573.
# B1: RHOBTB1 (parent)
# chain: TFGDHHKDRRFAYGRSDVVVLCFS
# Variants of: B1
# Experiment: protein stability index of a GFP-peptide fusion (GPS, HEK-293T) (PSI 1-6); higher = more stable
# Details: c terminus: a fixed tail appended
# 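Note: lentivirally expressed fusions sorted by FACS into six bins by GFP to DsRed ratio, PSI derived from sequencing read proportions per bin multiplied by bin number.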
row,Variant,protein stability index
1,TFGDHHLDRRFAYGRSDVVVLCFS,1.46
2,TFGDHHGDRRFAYGRSDVVVLCFS,3.09
3,TFGDHHCDRRFAYGRSDVVVLCFS,2.42
4,TFGDHHMDRRFAYGRSDVVVLCFS,3.46
5,TFGDHHNDRRFAYGRSDVVVLCFS,3.44
6,TFGDHHYDRRFAYGRSDVVVLCFS,3.88
7,TFGDHHDDRRFAYGRSDVVVLCFS,2.76
8,TFGDHHQDRRFAYGRSDVVVLCFS,2.38
9,TFGDHHSDRRFAYGRSDVVVLCFS,3.12
10,TFGDHHTDRRFAYGRSDVVVLCFS,3.37
11,TFGDHHFDRRFAYGRSDVVVLCFS,3.68
12,TFGDHHADRRFAYGRSDVVVLCFS,1.53
13,TFGDHHWDRRFAYGRSDVVVLCFS,3.28
14,TFGDHHKDRRFAAGRSDVVVLCFS,1.36
15,TFGDHHKDRRFAKGRSDVVVLCFS,2.4
16,TFGDHHKDRRFAGGRSDVVVLCFS,1.46
17,TFGDHHKDRRFAMGRSDVVVLCFS,1.55
18,TFGDHHKDRRFAEGRSDVVVLCFS,1.93
19,TFGDHHKDRRFADGRSDVVVLCFS,2.16
20,TFGDHHKDRRFAHGRSDVVVLCFS,2.49
21,TFGDHHKDRRFAIGRSDVVVLCFS,3.14
22,TFGDHHKDRRFACGRSDVVVLCFS,2.38
23,TFGDHHKDRRFVYGRSDVVVLCFS,1.95
24,TFGDHHKDRRFGYGRSDVVVLCFS,1.57

row,Variant,protein stability index
1,TFGDHHKDRRFHYGRSDVVVLCFS,3.79
2,TFGDHHKDRRFQYGRSDVVVLCFS,2.33
3,TFGDHHKDRRFTYGRSDVVVLCFS,2.65
4,TFGDHHKDRRFYYGRSDVVVLCFS,1.9
5,TFGDHHKDRRFRYGRSDVVVLCFS,2.98
6,TFGDHHKDRRFLYGRSDVVVLCFS,2.48
7,TFGDHHKDRRFEYGRSDVVVLCFS,1.93
8,TFGDHHKDRRFIYGRSDVVVLCFS,3.53
9,TFGDHHKDRRFCYGRSDVVVLCFS,2.93
10,TFGDHHKDRRFKYGRSDVVVLCFS,1.46
11,TFGDHHKDRRFDYGRSDVVVLCFS,2.58
12,TFGDHHKDPRFAYGRSDVVVLCFS,3
13,TFGDHHKDNRFAYGRSDVVVLCFS,2.58
14,TFGDHHKDHRFAYGRSDVVVLCFS,3.56
15,TFGDHHKDQRFAYGRSDVVVLCFS,3.83
16,TFGDHHKDSRFAYGRSDVVVLCFS,1.86
17,TFGDHHKDTRFAYGRSDVVVLCFS,1.42
18,TFGDHHKDKRFAYGRSDVVVLCFS,1.97
19,TFGDHHKDLRFAYGRSDVVVLCFS,2.66
20,TFGDHHKDGRFAYGRSDVVVLCFS,2.82
21,TFGDHHKDDRFAYGRSDVVVLCFS,3.4
22,TFGDHHKDVRFAYGRSDVVVLCFS,3.55
23,TFGDHHKDIRFAYGRSDVVVLCFS,3.77
24,TFGDHHKDERFAYGRSDVVVLCFS,2.75

row,Variant,protein stability index
1,TFVDHHKDRRFAYGRSDVVVLCFS,3.29
2,TFDDHHKDRRFAYGRSDVVVLCFS,2.11
3,TFSDHHKDRRFAYGRSDVVVLCFS,2.45
4,TFRDHHKDRRFAYGRSDVVVLCFS,1.52
5,TFFDHHKDRRFAYGRSDVVVLCFS,1.39
6,TFWDHHKDRRFAYGRSDVVVLCFS,2.33
7,TFKDHHKDRRFAYGRSDVVVLCFS,1.74
8,TFADHHKDRRFAYGRSDVVVLCFS,1.83
9,TFEDHHKDRRFAYGRSDVVVLCFS,2.98
10,TFNDHHKDRRFAYGRSDVVVLCFS,1.98
11,TFPDHHKDRRFAYGRSDVVVLCFS,2.48
12,TFIDHHKDRRFAYGRSDVVVLCFS,2.42
13,TFGDHHKHRRFAYGRSDVVVLCFS,2.82
14,TFGDHHKPRRFAYGRSDVVVLCFS,2.77
15,TFGDHHKLRRFAYGRSDVVVLCFS,4.19
16,TFGDHHKWRRFAYGRSDVVVLCFS,3.29
17,TFGDHHKGRRFAYGRSDVVVLCFS,1.87
18,TFGDHHKYRRFAYGRSDVVVLCFS,4.4
19,TFGDHHKRRRFAYGRSDVVVLCFS,2.96
20,TFGDHHKSRRFAYGRSDVVVLCFS,2.76
21,TFGDHHKNRRFAYGRSDVVVLCFS,2.29
22,TFGDHHKFRRFAYGRSDVVVLCFS,1.92
23,TFGDHHKQRRFAYGRSDVVVLCFS,4.86
24,TFGDHHKERRFAYGRSDVVVLCFS,2.77

row,Variant,protein stability index
1,TFGYHHKDRRFAYGRSDVVVLCFS,3.19
2,TFGPHHKDRRFAYGRSDVVVLCFS,2.46
3,TFGWHHKDRRFAYGRSDVVVLCFS,3.1
4,TFGKHHKDRRFAYGRSDVVVLCFS,2.06
5,TFGNHHKDRRFAYGRSDVVVLCFS,2.15
6,TFGEHHKDRRFAYGRSDVVVLCFS,3.4
7,TFGQHHKDRRFAYGRSDVVVLCFS,3.51
8,TFGLHHKDRRFAYGRSDVVVLCFS,3.29
9,TFGTHHKDRRFAYGRSDVVVLCFS,2.54
10,TFGHHHKDRRFAYGRSDVVVLCFS,1.51
11,TFGDAHKDRRFAYGRSDVVVLCFS,2.25
12,TFGDLHKDRRFAYGRSDVVVLCFS,2.09
13,TFGDPHKDRRFAYGRSDVVVLCFS,3.97
14,TFGDGHKDRRFAYGRSDVVVLCFS,1.21
15,TFGDWHKDRRFAYGRSDVVVLCFS,3.81
16,TFGDCHKDRRFAYGRSDVVVLCFS,2.27
17,TFGDDHKDRRFAYGRSDVVVLCFS,2.41
18,TFGDYHKDRRFAYGRSDVVVLCFS,2.15
19,TFGDFHKDRRFAYGRSDVVVLCFS,2.45
20,TFGDQHKDRRFAYGRSDVVVLCFS,2.74
21,TFGDRHKDRRFAYGRSDVVVLCFS,2.59
22,LFGDHHKDRRFAYGRSDVVVLCFS,2.59
